Assay: protease stability score; higher = more stable; yeast display proteolysis, trypsin and chymotrypsin;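 also: relative to predicted unfolded state with 0 unfolded-like and 1 meaning tenfold more protease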

Sequence | protease stability score
DELEHHLFELMEKMIKARLTGDEETLHRLADPDTRIEVGEFEFHGREHWVRFVRELDERIKNIRFEIRLRRYETVGNKIHIDIELRYHQGDKEEHHRTEWILIVFNGRLKSIQIVLH | 1.81
DELEHIERRYWHLFVRALETGDEERLDRLVDPHARLDWNGREIVGREHLRHYLSHMRIVIEHHHIKDVNIQGEKIDSDIHLVLTMHVGDKDLEIRTDARSIHLKIDGKWLIESHKIK | 0.966
DELEHLANEWMKRVIHHLETGDEESWMKYADPNVRTEINIGDKTEERHGRERYIDFIRRLGFDHVHIHDQRIHHVNGVLFIHLNIKIKQGDYLFTSELDIIVRKIDGQWFVRSINIKVD | 0.601
DELEHLERQLAEEILEDFMTGNEENFDHLADPNVKHDINGVEIIGREHYVEWWRRIKNVKIELKRYHIIGDKATIDGHEVFEGRRHKMILELDIVNGQIKRVRFELR | 0.986
DELEHLLREFFRLWKTAVETGDFRMLLELADPHVKQHIGDKTFVGWERLIESIERIVHEMRITEVTFTQVQVQGDYAHVDLRVFSEVGDKHLILKVELFLLKVNGRWVLESLRVE | 1.62
DELEHMVRLLLKIWIHALITGDEELMMDQADPNVRLIIGDKIHHGMETFEEWVHQFKNLTVKHIVLRHTHYQGNKARIVGHLDIEINGRHHRLQTEIVIHKFNGKWYISDLRFD | 0.646
DELEHRSQEAIEHIVHSMQTGNEEEIERNMDPNARIRVGNYHLHGRKEAVRWFNFFLTELRIHDIHIHDVKSQGEWIHIDGHIRGQINGQEHSVRTHIIVYKINGKWHDTSYHLS | 0.723
DELEHWAHIILEEFTRLYTTGDEETFNHLADPDTRLFFNGREFIGREKFIDAWRHLRYKEIRLRDHQVDVQGDKMRMILHMRVNSNINGREVEQDVHLEILTKKIDGRWRLKEVHFQTH | 2.39
DELEKAIHHILKELLEARLTGDWQMVIDRFDPHVLLRVGDKEFHGREIIRHLHEQFDHVEHVDLRLENHRYQGNKIHLDIKTTMDVRVGEKRVELRTESRIILLKVNGRWIIESVEIN | 2.02
DELEKAMRTAVELFRHLIETGDEEFMQRLADPHTQLIVGDKTFHGRDHVVHEWEKFKNVKYRFEDVEFQGDKIILHSTLEFDGRRLETHIQLHKINGRWLLKRVEIK | 1.39
DELEKDARKLFEMIYRMLKTGDEDHFLRLADPDVRVHQGDKEIHGMDISKQIVEDLGIQKIEVHVHKVEIQGDKVDITGEVNWNGQNINLIVYTEKVNGKWRIHSVELH | 1.61
DELEKDLKDAFRILIEEVKTGDFKSMRRNMDPDARIDIGDKHSVGREEAIHLMEIFYKEWRFEHIDLHDFTLIGNKLELDMRVHGNVDGVRTIVIRRVISEKIDGRWLIRTESIE | 0.494
DELEKFIKYVATRLVHDWMTGDEETSKKLLDPHYKTRILYDGRYTELHGREIFVKFVRELLEEIRIHLEVDRIRPIGDKVLLDTRLEIRIGDKRIERSTELHYVVINGRVDQMELVFI | 1.32
DELEKHLIHLAEIFIHNKLTGDEEELQRFMDPSVRTIVGEFHYHGRELVTEWLRREWEEMRIHEIHITHVRFQGDKVIIEGRLDIEVNGRRVDTHALIILVVVDGVMKSVKFEII | 1.23
DELEKIVEDFLRVLLEHLHTGNWEYLKEYFDPDVRIKIGDKELHGREDFVRRLREWLSRIKNATFEIEVDDNKVQGDKAILHTKVIIRVGDKLIELKTHIIVNKINGVWMVRSQSVE | 1.46
DELEKLLEHMLRLMNELLETGDWDWIMSLADPHTKFRLDINGVEHIDHGWEFLHKRIEELGADHREFRVRDIHTQGDKVHSEGEHLIRVNGKEIHIDVRIILLVVNGKVKEIEVRFK | 1.7
DELEKLLKLAMEMSLKLFETGDEESLHRLIDPHVRMEIVQGDKFIELHGREDVVRAMKEFRKKFPNLKVELEDHDIQGDKVIWHSVIHVGDKELELIIISLKFDGRWVLESVELKHR | 1.4
DELEKLLRYWLREFFDALLTGDEEIFTRYMDPEARLIVDGVEYHGREEVLKHLRDKLREIRIKDYVIHSLDFVNGRIHVDVRQDVVIGEKREKTRLHIHIDVIDGKNHELDIEWR | 2.1

Sequence | protease stability score
DELEKVMHDMADLILHLYLTGDWETFLELADPNVKITIGDKEHHGWKSWKRLLEEELRRVDHIDSKLKRVIAIGDKAHVDGHMEINVNGREYRLDVHIIYVIVNGRHKEIEIHSE | 1.31
DELEKYVLDMVMLWIRSHSTGDEDALRRLADPHTRVIINGKELHGMDDVRRHIEEIRIHEEHVHVERVEIQGNKAIVDTSRHIWIDFNGQNIRVDVKTRFHLEKIDGVWYLKEVRIG | 1.4
DELELHAEEMYEIWIKLEETGDWEIMLELADPNTKVTWNGVRIHGMEHYLERHHREHRKIKNITTHFILRDIDVIGNKSHVDGEVEIRVNGKTIILRVHFDNVVIDGRFKSHRVIVK | 1.03
DELEQLAREVWETLRRAELTGDENRIHEMLDPNVRVDINGRESHGWDSFIYLLRELRFEDMHERDYRIRDVNGRLEITVTGDLEGEFNGKHFNRHTVIIIILEKYDGRWKVHEVKIELR | 2.19
DELEQWVKHALEIWVRSLHTGDEDNLSELVDPNVRIDVNGQELHGRELVLHFLSHMRVHIIITRDREIQGNKAIMHLEVHHHQGDKEIHFRFDLIFHKYDGRWRLTEIRIE | 1.03
DELERDSRRVMEKLLEILYTGNFDELRKLFDPNVITHIDGRHIHGMHITIRELLRIQEELGYEFVEARMTSTHHQGDKLYVHLEYRIGDKTTRFFWFITKIDGRWWITEMRFE | 1.4
DELERDVKQVWDLLLESSRTGDEEVLDKMLDPNARMKVNGQESHGRHAVELLSERIDHIHHIEIERFRTQGNKIEIDIHIDGEVNGRRIRTHMHVIIRKIDGRWFVESWEMK | 0.931
DELERILKEQAETIMHFWRTGDEESFNHMADPDYWLRVGDKNVHGREKASEYLRHWLEHIRIHDVKIRDKRVFNGRVFIDMREDGNVDGKRTTRTLHVIIVSIDGKITMVEIRLE | 0.996
DELERLAVETIHRFWHSLTTGNEKVLDELLDPNVRVHYNGKDIIGMEHFLKEISEIWRHVEDIKFTDNRVQGEKIRVHGHVDVKEEFDGRKIKIHTRVDYVVHKINGVWVVQSIKIH | 1.05
DELERLVEDLVRILLEILLTGDWKILMRLMDPDARFIYGDKQRVGMEEVIKELHRLKEEIRINSIEIKRVEIQGDWVHVDGRSDVEVGDKRRSTEVRYHFHVFNGRMRRINIEVE | 1.12
DELERRAEEVFRQWLHYWLTGDFESMERLADPNVRIVINGVELIGMEHVAREIVHRIRHWRVRIQIDRIDNQGDKVHSEGKLIIHQGEKNIHHDITIHFDVVNGKIKHLEIRIQ | 2.24
DELERRSRDLVELFITALKTGDEDLFSRLIDPNALTWVGDKEQVGWHTDVKMFEDLGLTNFDFHLRSKEIRIIDGKLHTIINGSININGKETDTEIRITISKINGRWQLSSVFVRLH | 0.786
DELERVSERAIKIFLHVFKTGDEHMHERMADPNVRVHVDGQDLHGREETVEHMLHFFERIKNVKIDVEDSKAYGDKVIVHSRLHWNGVTQHVELEMRKVNGRWEVTEIIIH | 0.1
DELETYSRRMFQLLLHIMETGDEEKWDHLADPNARLDIDGREFHGREIVSEVHSQIRSELGVDHHQITHFRLHTFDGKVEVEMEVIDKFDGRDVRSRIHIIVIKINGKWFLHEMSYDHG | 1.35
DELFKNMHTMAEIFLKLLLTGDEDLIRHYADPNVRLEWIFNGVRFEHVGRESFMEFLHRWLEELRLHDLIVHEVRFQGDKYHMDTRERVRVDGVELDRKTEQMYVVVDGRLHSVHRIIN | 0.678
DELHEDAEKAWRYRLEILRTGDPDSILELMDPDVRIEQGDKKFHGRELTEKFMKWLMDHARYEFFHLKDMRTYGNKVETDGYVVGNVDGQEHIVHVHVYSLKVNGRWTIKSIEIK | 1.37
DELHEERERASEVARRWVLTGNEEMLVQLADPEVRLHFNGVDFVGRETIHETLRRIHELWGVDRIEVRLKTVHIYDGVVDVHVDLHVGDKEIRDDIHLKKFNGRWEMTTRHVH | 0.348
DELHEEYRKIYNIFRHLFETGDWDTWRKLADPHARFEYGEKVSHGREVASETIDWLLEHLRLEHFKLDHFTVQGNFFISDGTEHISYGDKTHTVKTRIILVRVNGVFHLVRIEFV | 1.43
